Results from publication PMC8184831.

System: SOX2 (hSOX2) (human)
Test: EMSA
Details: Plasmid EMSA: 60 mM KCl, 12 mM Hepes pH 7.9, 2 mM MgCl2, 1 mM DTT, 0.12 mM EDTA, 12% glycerol, 0.01% NP40, 10 ng/uL DNA, 15 min 30 C; 0.8% agarose 0.5x TBE. …

SOX2 non-specific-site EMSA probe
binding signal (fold higher Kd than specific site): 30

SOX2 specific-site EMSA probe
Kd: 2 nM
